Data on ten molecules can be found in patent publication US20210364527A1.

For experiment [1], the target named is T1, N-terminal leucine peptide ….
T1 sequence (peptide): LAAIAAFAADDDW
In words: peptide-on-chip recognition assay, dye-labelled PS372.

Experiment [2] addresses IR peptide (N-terminal IR; rest of sequence not given). In words: binder-on-chip, run 94158.
For experiment [3] the target is unchanged. In words: binder-on-chip single-molecule assay.
Experiment [4] has as its target IA peptide (N-terminal isoleucine, penultimate alanine; rest of sequence not given). In words: binder-on-chip single-molecule assay.
The target of experiment [5] is T2, LA peptide (N-terminal leucine, penultimate alanine; rest of sequence not given). In words: binder-on-chip single-molecule assay.
Experiment [6] addresses FA peptide (N-terminal phenylalanine, penultimate alanine; rest of sequence not given). In words: stopped-flow, complex mixed with excess unlabelled trap peptide.
For experiment [7], the target named is T2, LA peptide (N-terminal leucine, …). The experiment is described as above.
For experiment [8], the target named is peptide having an N-terminal (unmodified) tyrosine residue (rest of sequence not given).
Experiment [9] deals with polypeptide with a terminal leucine residue (rest of sequence not given).
Experiment [10] concerns the target peptide having an N-terminal tryptophan residue (rest of sequence not given).
Experiment [11] deals with peptide having an N-terminal phenylalanine residue (rest of sequence not given).
The target of experiment [12] is fluorescently-labeled peptide containing N-terminal phospho-tyrosine. In words: single-molecule, SH2 variant immobilized in sample wells, labeled peptide in solution; middle plot (middle trace of FIG. 22A).
The target is the same in experiment [13]. In words: single-molecule, SH2 variant immobilized in sample wells, labeled peptide in solution; bottom panel.
Experiment [14] concerns the target peptide containing N-terminal phospho-serine. In words: negative control, single-molecule, SH2 variant immobilized, labeled phospho-serine peptide in solution; bottom trace.
Experiment [15] concerns the target fluorescently-labeled peptide containing N-terminal phospho-tyrosine. In words: single-molecule, SH2 variant immobilized in sample wells, labeled peptide in solution; bottom plot (bottom trace of FIG. 22A).
For experiment [16] the target is unchanged. In words: single-molecule, SH2 variant immobilized in sample wells, labeled peptide in solution; top plot (top trace of FIG. 22A).
For experiment [17] the target is unchanged. In words: single-molecule, SH2 variant immobilized in sample wells, labeled peptide in solution; top panel.
In experiment [18] the target is peptide containing N-terminal phospho-serine. In words: negative control, single-molecule, SH2 variant immobilized, labeled phospho-serine peptide in solution; middle trace.
Experiment [19] shares this target. In words: negative control, single-molecule, SH2 variant immobilized, labeled phospho-serine peptide in solution; top trace.

What is called koff is a measure of how fast the partners let go of each other. Read a low koff as slow dissociation.

B1: PS372 (ClpS homolog) (protein)
chain: MAFPARGKTAPKNEVRRQPPYNVILLNDDDHTYRYVIEMLQKIFGFPPEKGFQIAEEVDRTGRVILLTTSKEHAELKQDQVHSYGPDPYLGRPCSGSMTCVIEPAV
With B1, the mean pulse width in [1] amounted to 957 ms; in experiment [2], 86 ms; in [5], 876 ms. Further, the Median pulse width in experiment [2] was 64 ms. For the same molecule, the pulse duration in experiment [3] turned out to be 83 ms; in experiment [4], 70 ms.

B2: PS706 (atClpS2-V1-EF fusion) (designed binder)
chain: MSDSPVDLKPKPKVKPKLERPKLYKVMLLNDDYTPMSFVTVVLKAVFRMSEDTGRRVMMTAHRFGSAVVVVCERDIAETKAKEATDLGKEAGFPLMFTTEPEEGSAGSAAGSGEFMIKKYTGDFETTTDLNDCRVWSWGVCDIDNVDNITFGLEIDSFFEWCEMQGSTDIYFHDEKFDGEFMLSWLFKNGFKWCKEAKEERTFSTLISNMGQWYALEICWNVKCTTTKTGKTKKEKQRTIIYDSLKKYPFPVKEIAEAFNFPIKKGEIDYTKERPIGYNPTDDEWDYLKNDIQIMAMALKIQFDQGLTRMTRGSDALGDYQDWVKTTYGKSRFKQWFPVLSLGFDKDLRKAYKGGFTWVNKVFQGKEIGEGIVFDVNSLYPSQMYVRPLPYGTPLFYEGEYKENIDYPLYIQNIKVRFRLKERHIPTIQVKQSSLFIQNEYLESSVNKLGVDELIDLTLTNVDLDLFFEHYDILEIHYTYGYMFKASCDMFKGWIDKWIEVKNTTEGARKANAKGMLNSLYGKFGTNPDITGKVPYMGEDGIVRLTLGEEELRDPVYVPLASFVTAWGRYTTITTAQRCFDNIIYCDTDSIHLTGTEVPEAIEHLVDSKKLGYWKHESTFQRAKFIRQKTYVEEIDGELNVKCAGMPDRIKELVTFDNFEVGFSSYGKLLPKRTQGGVVLVDTMFTIKGSAGSAAGSGEFHHHHHHHHHHGGGSGGGSGGGSGLNDFFEAQKIEWHEGGGSGGGSGGGSGLNDFFEAQKIEWHE
Molecule B2 had a koff in experiment [6] of 0.589 s⁻¹.

B3: PS704 (atClpS2-V1-2xSNAP TAG fusion) (designed binder)
chain: MSDSPVDLKPKPKVKPKLERPKLYKVMLLNDDYTPMSFVTVVLKAVFRMSEDTGRRVMMTAHRFGSAVVVVCERDIAETKAKEATDLGKEAGFPLMFTTEPEEGSAGSAAGSGEFMDKDCEMKRTTLDSPLGKLELSGCEQGLHEIKLLGKGTSAADAVEVPAPAAVLGGPEPLMQATAWLNAYFHQPEAIEEFPVPALHHPVFQQESFTRQVLWKLLKVVKFGEVISYQQLAALAGNPAATAAVKTALSGNPVPILIPCHRVVSSSGAVGGYEGGLAVKEWLLAHEGHRLGKPGLGMDKDCEMKRTTLDSPLGKLELSGCEQGLHEIKLLGKGTSAADAVEVPAPAAVLGGPEPLMQATAWLNAYFHQPEAIEEFPVPALHHPVFQQESFTRQVLWKLLKVVKFGEVISYQQLAALAGNPAATAAVKTALSGNPVPILIPCHRVVSSSGAVGGYEGGLAVKEWLLAHEGHRLGKPGLGGSAGSAAGSGEFHHHHHHHHHHGGGSGGGSGGGSGLNDFFEAQKIEWHEGGGSGGGSGGGSGLNDFFEAQKIEWHE
B3 returned a koff in [6] of 0.677 s⁻¹.

B4: PS705 (atClpS2-V1-SNAP TAG fusion 2) (designed binder)
chain: MSDSPVDLKPKPKVKPKLERPKLYKVMLLNDDYTPMSFVTVVLKAVFRMSEDTGRRVMMTAHRFGSAVVVVCERDIAETKAKEATDLGKEAGFPLMFTTEPEEHHHHHHHHHHGGGSGGGSGGGSGLNDFFEAQKIEWHEGGGSGGGSGGGSGLNDFFEAQKIEWHEGSAGSAAGSGEFMDKDCEMKRTTLDSPLGKLELSGCEQGLHEIKLLGKGTSAADAVEVPAPAAVLGGPEPLMQATAWLNAYFHQPEAIEEFPVPALHHPVFQQESFTRQVLWKLLKVVKFGEVISYQQLAALAGNPAATAAVKTALSGNPVPILIPCHRVVSSSGAVGGYEGGLAVKEWLLAHEGHRLGKPGLG
In experiment [6], B4 showed a koff of 1.27 s⁻¹.

B5: PS698 (PS557-SNAP TAG fusion 2) (designed binder)
chain: MPTAASATESAIEDTPAPARPEVDGRTKPKRQPRYHVVLWNDDDHTYQYVVVMLQSLFGHPPERGYRLAKEVDTQGRVIVLTTTREHAELKRDQIHAFGYDRLLARSKGSMKASIEAEEHHHHHHHHHHGGGSGGGSGGGSGLNDFFEAQKIEWHEGGGSGGGSGGGSGLNDFFEAQKIEWHEGSAGSAAGSGEFMDKDCEMKRTTLDSPLGKLELSGCEQGLHEIKLLGKGTSAADAVEVPAPAAVLGGPEPLMQATAWLNAYFHQPEAIEEFPVPALHHPVFQQESFTRQVLWKLLKVVKFGEVISYQQLAALAGNPAATAAVKTALSGNPVPILIPCHRVVSSSGAVGGYEGGLAVKEWLLAHEGHRLGKPGLG
With B5, the koff in [7] worked out at 0.19 s⁻¹.

B6: PS703 (atClpS2-V1-SNAP TAG fusion) (designed binder)
chain: MSDSPVDLKPKPKVKPKLERPKLYKVMLLNDDYTPMSFVTVVLKAVFRMSEDTGRRVMMTAHRFGSAVVVVCERDIAETKAKEATDLGKEAGFPLMFTTEPEEGSAGSAAGSGEFMDKDCEMKRTTLDSPLGKLELSGCEQGLHEIKLLGKGTSAADAVEVPAPAAVLGGPEPLMQATAWLNAYFHQPEAIEEFPVPALHHPVFQQESFTRQVLWKLLKVVKFGEVISYQQLAALAGNPAATAAVKTALSGNPVPILIPCHRVVSSSGAVGGYEGGLAVKEWLLAHEGHRLGKPGLGGSAGSAAGSGEFHHHHHHHHHHGGGSGGGSGGGSGLNDFFEAQKIEWHEGGGSGGGSGGGSGLNDFFEAQKIEWHE
As for B6, the koff in experiment [6] is 0.767 s⁻¹.

B7: Agrobacterium tumifaciens ClpS1 (atClpS1) (protein)
chain: MIAEPICMQGEGDGEDGGTNRGTSVITRVKPKTKRPNLYRVLLLNDDYTPMEFVIHILERFFQKDREAATRIMLHVHQHGVGECGVFTYEVAETKVSQVMDFARQHQHPLQCVMEKK
With B7, the mean pulse duration (dashed line of the distribution) in [8] was 0.69 s; in experiment [9], 0.31 s; in experiment [10], 0.34 s; in experiment [11], 0.59 s.

B8: H. sapiens Fyn SH2 domain triple mutant superbinder (designed binder)
chain: MGAMDSIQAEEWYFGKLGRKDAERQLLSFGNPRGTFLIRESETVKGAYALSIRDWDDMKGDHVKHYLIRKLDNGGYYITTRAQFETLQQLVQHYSERAAGLSSRLVVPSHK
B8: the pulse duration, M (median) of one trace is 0.15 s in experiment [12]; 0.1 s in experiment [14]; 0.17 s in experiment [15]; 0.15 s in [16]; 0.11 s in [18]; 0.09 s in experiment [19]. In addition, the pulse duration, μ (mean) of one trace amounted to 0.23 s in [12]; 0.16 s in experiment [14]; 0.26 s in experiment [15]; 0.25 s in [16]; 0.15 s in experiment [18]; 0.09 s in experiment [19]. The same molecule yielded a mean interpulse duration (dashed line of the distribution) in experiment [13] of 0.51 s. The molecule further showed a mean pulse duration (dashed line of the distribution) in experiment [17] of 0.26 s.

B9: Planctomycetia bacterium ClpS homolog (PS557) (protein)
chain: MPTAASATESAIEDTPAPARPEVDGRTKPKRQPRYHVVLWNDDDHTYQYVVVMLQSLFGHPPERGYRLAKEVDTQGRVIVLTTTREHAELKRDQIHAFGYDRLLARSKGSMKASIEAEE
Turning to B9, the koff in experiment [7] turned out to be 0.22 s⁻¹.

B10: PS696 (PS557-SNAP TAG fusion) (designed binder)
chain: MPTAASATESAIEDTPAPARPEVDGRTKPKRQPRYHVVLWNDDDHTYQYVVVMLQSLFGHPPERGYRLAKEVDTQGRVIVLTTTREHAELKRDQIHAFGYDRLLARSKGSMKASIEAEEGSAGSAAGSGEFMDKDCEMKRTTLDSPLGKLELSGCEQGLHEIKLLGKGTSAADAVEVPAPAAVLGGPEPLMQATAWLNAYFHQPEAIEEFPVPALHHPVFQQESFTRQVLWKLLKVVKFGEVISYQQLAALAGNPAATAAVKTALSGNPVPILIPCHRVVSSSGAVGGYEGGLAVKEWLLAHEGHRLGKPGLGGSAGSAAGSGEFHHHHHHHHHHGGGSGGGSGGGSGLNDFFEAQKIEWHEGGGSGGGSGGGSGLNDFFEAQKIEWHE
In turn, B10 had a koff in [7] of 0.15 s⁻¹.
